The values below come from a protein production outcome set (Wang et al. 2014).

This data set can be described thus: label from the status in PepcDB records.
“MSKVRIAIIGNGMVGHRFIEELLDKAPAGQFDITVFCEEPRIAYDRVHLSSYFSHHTAEELSLVREGFYEKHGVKVLVGERAITINRQEKVIHSSAGRTVFYDKLIMATGSYPWIPPIKGAETQDCFVYRTIEDLNAIESCARRSKRGAVVGGGLLGLEAAGALKNLGVETHVIEFAPMLMAEQLDQMGGEQLRRKIESMGVKVHTSKNTKEIVQQGTEARKTMHFADGSELQVDFIVFSTGIRPRDKLATQCGLAVAQRGGIMVNDSCQTSDPDIYAIGECASWNNRVYGLVAPGYKMAQVAVDHLLGSENSFTGADLSAKLKLLGVDVGGIGDAHGRTPGARSYVYLDESKEVYKRLIVSADNKTLLGAVLVGDTSDYGNLLQLVLNAIELPENPDSLILPAHAGSGKPSIGVDKLPDSAQICSCFDVSKGDLIAAINKGCHTVAALKAETKAGTGCGGCIPLVTQVLNAELAKQGIEVNNNLCEHFAYSRQELFHLIRVEGIKTFDELLEKHGQGYGCEVCKPTVGSLLASCWNEYILKPQHTPLQDSNDNFLANIQKDGTYSVIPRSAGGEITPEGLVAVGRIAREFNLYTKITGSQRIGLFGAQKDDLPEIWRQLIEAGFETGHAYAKALRMAKTCVGSTWCRYGVGDSVGFGVELENRYKGIRTPHKMKFGVSGCTRECAEAQGKDVGIIATEKGWNLYVCGNGGMKPRHADLLAADLDRETLIKYLDRFMMFYIRTADKLTRTAPWLDNMEGGIDYLRSVIIDDKLGLNDHLEEELARLRAAFACEWTETVNNPAAQTRFKHFINSDQRDPNVQVVPERDQHRPATPYERIPVTLVEEKA”: the protein production result is on record as “not failed”. For “MSKVRVAGFSVSVDGFGAGPEQSLNDPLGKRGPEMFQWFFHTRTFRAMMGKDDGSTGIDEDYASRAMANFGAFILGRNMFGPIRGEWPDDAWKGWWGPNPPYHAPTYVLTHYPREPLVMEGGTTFHFVTGGIHQALDQAKAAAGDKDVKIGGGVATVRQYLQAGLIDELHFAVSPVVLGKGEAMFAGIDLPALDFRVTEHAASEKATHIVLAKLEHHHHHH”, the protein production result was “failed”.

In the case of “MSLAEKIKVLIVDDQVTSRLLLGDALQQLGFKQITAAGDGEQGMKIMAQNPHHLVISDFNMPKMDGLGLLQAVRANPATKKAAFIILTAQGDRALVQKAAALGANNVLAKPFTIEKMKAAIEAVFGALK”, the protein production result is “not failed”. As for “MSLAISITMETFYSLYPAVKHLHLTLIAVSVLFFVVRFVLHLRQSALMGKKVFKVAPHVIDTFLLLSGLVLCFMIKQYPFVDPWLTEKIGAVVAYIALGVIAIKANRNKLFKVFAFLGAIGWLVYAAKLAHFKQAVLLG”, the protein production result is “failed”. With “MSLALQYFKALSDETRLRLIHVLNRHELSVNELVSILEMGQSRVSRHLKILTGAGLLTSRRDGLWVFYSAAAEGDGRAFLDAVTPFVTTDMVLQADLDMAQKIIEERALKTRQFFNAIAEDWDELNREVLGGFDLAGAVAEAMPQCETAVDLGCGTGSVIERMLQRSQQVIGVDGSPRMLELARRRFVEGAERVSLRIGELDHLPLRDGEADFASINMVLHHLSDPGVALGEIRRVLRLGGQLMVTDFDRHDNERMRSDYGDRWLGFEGVQLEGLLREAGFTVRECRRQGVAKGLALHLMLAEKTQQ” the entry was “failed”.

For “MSLANQTTKTLGLVMPSSASKAFQNPFFPEVIRGISSFAHVEGYALYMSTGETEEEIFNGVVKMVQGRQIGGIILLYSRENDRIIQYLHEQNFPFVLIGKPYDRKDEITYVDNDNYTAAREVAEYLISLGHKQIAFIGGGSDLLVTRDRLAGMSDALKLADIVLPKEYILHFDFSRESGQQAVEELMGLQQPPTAIMATDDLIGLGVLSALSKKGFVVPKDVSIVSFNNALLSEIASPPLSTVDVNIYQLGYEAAKALVDKVENAESTAKCIIIPHKLLKRQTCEGHHHHHH”, the protein production result is listed as “not failed”.

Turning to “MSLANRIRLHIWGDYACFTRPEMKVERVSYDVITPSAARGILSAIHWKPAINWVIDKIYVLKPIRFESVRRNELGAKISESKVSGAMKRKSVADLYTVIEDDRQQRAATVLKDVAYVIEAHAVMTSKAGVDENTTKHIEMFKRRALKGQCFQQPCMGVREFPAHFALIDDNDPLPLSQLSESEFNRDLGWMLHDIDFEHGNTPHFFRAELKNGVIDVPPFYAEEVKREGHHHHHH”, the protein production entry is given as “not failed”. Turning to “MSLAQADGIAFRELSFPEALKRAEVEDKLLFVDCFTTWCGPCKRLSKVVFKDSLVADYFNRHFVNLKMDMEKGEGVELRKKYGVHAYPTLLFINSSGEVVYRLVGAEDAPELLKKVKLGVESEGHHHHHH”, the protein production result is given as “not failed”. With “MSLCRLARKNIRTFATKRMKQFMWIAMSIMILFFMISLQFNEGAILKVGDAFVFQMYFYTLFIVLIFICIFTTYKMMYSLLLVRREEFTSYVAENIKRKEVLCLLCQEQLFIYGAAFVFGLVNGMLFLKLFTIIFIRIAGIQGINSAPITIYAIVVVSIIMIVILLLSMVQCFRFVQSLQDKNSLHFKKKA” the entry was “failed”; with “MSLDFWLYKQAQQNGHHIAITDGQESYTYQNLYCEASLLAKRLKAYQQSRVGLYIDNSIQSIILIHACWLANIEIAMINTRLTPNEMTNQMRSIDVQLIFCTLPLELRGFQIVSLDDIEFAGRDITTNGLLDNTMGIQYDTSNETVVPKESPSNILNTSFNLDDIASIMFTSGTTGPQKAVPQTFRNHYASAIGCKESLGFDRDTNWLSVLPIYHISGLSVLLRAVIEGFTVRIVDKFNAEQILTMIKNERITHISLVPQTLNWLMQQGLHEPYNLQKILLGGAKLSATMIETALQYNLPIYNSFGMTETCSQFLTATPEMLHARPDTVGMPSANVDVKIKNPNKEGHGELMIKGANVMNGYLYPTDLTGTFENGYFNTGDIAEIDHEGYVMIYDRRKDLIISGGENIYPYQIETVAKQFPGISDAVCVGHPDDTWGQVPKLYFVSESDISKAQLIAYLSKHLAKYKVPKHFEKVDTLPYTSTGKLQRNKLYREGHHHHHH”, “not failed”; with “MSLDKKLMPVPDGHPDVFDREWPLRVGDIDRAGRLRLDAACRHIQDIGQDQLREMGFEETHPLWIVRRTMVDLIRPIEFGDMLRCRRWCSGTSNRWCEMRVRVDGRKGGLIESEAFWIHVNRETEMPARIADDFLAGLHRTTSVDRLRWKGYLKPGSRDDASEIHEFPVRVTDIDLFDHMNNAVYWSVIEDYLASHAELLRGPLRVTIEHEAPVALGDKLEIISHVHPAGSTEIFGPGLVDRAVTTLTYVVGDEPKAVASLFNL”, “failed”. With “MSLDNLDVICIGAAIVDIPLQPVSKNIFDVDSYPLERIAMTTGGDAINEATIISRLGHRTALMSRIGKDAAGQFILDHCRKENIDIQSLKQDVSIDTSINVGLVTEDGERTFVTNRNGSLWKLNIDDVDFARFSQAKLLSLASIFNSPLLDGKALTEIFTQAKARQMIICADMIKPRLNETLDDICEALSYVDYLFPNFAEAKLLTGKETLDEIADCFLACGVKTVVIKTGKDGCFIKRGDMTMKVPAVAGITAIDTIGAGDNFASGFIAALLEGKNLRECARFANATAAISVLSVGATTGVKNRKLVEQLLEEYEGEGHHHHHH” the entry was “not failed”. For “MSLDSALRSRIETLLHSNRVVLFMKGRPGMPQCGFSAKAAGILQALGVEYAHVNVLDDQEIREGIKRYGDWPTIPQLYIDGELIGGSDIVSQMYENGELSTLLGVAAPDLTPPSITITPTAVEMLKGTLANAPGSTLALSIDSRFQPTFELAPINTQAIAAEYNGLRVQFDLASARRAEGITIDWVDDIRGQGLVIDNPNAPQPIQELSPGDAAAQVDAGVLTLVDVRPADERAVASVAVPFRTMDGGERAVLEQLPKGTPLAFLCHHGGRSLQAAEHFRSLGFTSIYNIGGGIDAWSTQVDPGVPKY”, the protein production result is given as “failed”. As for “MSLEAAGGIVWRWKAGSDIANDPAIASSKSAQEQLDSIEVCIVHRPKYDDWSWPKGKLEQNETHRHAAVREIGEETGSPVKLGPYLCEVEYPLSEEGKKTRHSHDCTADTKHTLYWMAQPISADDAEHLLDAFGPVHRADVGEINDIVWVSVREARKILSHSTDKDTLAVFVDRVQEGAATAQNLLIVRHAKAESRKSWKGTDANRPITPKGAAMAFALNRELACFNPTRLATSPWLRCQETLQVLSWQTERPMEHINTLTEDAFAEHPAVSWLAFREQITQTLNSRETTAICMHRPVIGGMYDHLRGLCARKQLAKQLIAKSPYMPTGTAMSLFIIDTPQGPSIIDIQKVSPIVYEGHHHHHH”, the entry is “not failed”. As for “MSLEGIKQINFQSINVVENLEEAKEGIPTIIMFKTDTCPYCVEMQKELSYVSKEREGKFNIYYARLEEEKNIDLAYKYDANIVPTTVFLDKEGNKFYVHQGLMRKNNIETILNSLGVKEGHHHHHH”, the entry is “not failed”. For “MSLELARRLVEILLALALIQQSLEHLRGFRDERILFGARIVLAVLVLAGVAGPWPLVGLAGLSLLILHRFQGPYNGGSDRMGLLILWCLTLSSLAPTPILAELAFGYLGAQLTLSYFISGWVKVVNPDWRSGRALRDVFQFSAYPVAESLRGFAQRPGLLRAMSWGVMGFELAFPLTLLWPPALMVGLVVAGTFHLANACLFGLNRFFWTWLSAYPAILWLQGRVF”, the protein production entry was “failed”.

For “MSLETFHYIANQLSGIFNFNGEPLATALIILGLAILSIMILAGLIYGAIKVVKAVPNMPFKQFIIVMLMIAVFLVIVGVLIP”, the protein production result is listed as “failed”. With “MSLETKTPNDAKNQVQTHERMKTSSEHVTPLDFNYPIHIVQAPQNHHVVGILTPRIQVSDNLKPYIDKFQDALINQIQTIFEKRGYQVLRFQDEKALNAQDKRKIFSVLDLKGWVGILEDLKMNLKDPNNPNLDTLVDQSSGSVWFNFYEPESNRVVHDFAVEVGTFQAMTYTYKHNNSGGLNSSNSIIHEYLEKNKEDAIHKILNRMYAVVMKKAVTELTKENIDKYREAIDRMKGFKSSMPQKKEGHHHHHH” the entry was “not failed”; with “MSLFEAILIILVLIIISAVISSSEISLAGARKLKLHSLAKDGDIRAEKVMRLQEQPGRFITMVQIGLNMVAILGGVVGESAITPYLAKLLAQYSQAEWTESTASWLSFALVTSAFVLLADLMPKRIAMTYPEQVAVRTINIMLCLITIFKPLVLLFDSIANLLFRLFGISTVRQDNMTSEDIVAVVDAGAKAGILKAQEHYLIENVFEMQERRVTSTMTTRENIIFLDRKDNREQVLATLGEDPYSKVLICDNGLDKILGYIETHDLLTQYLKNDHVSLVDSRLLRKPVFIPDTLSLYEVLELFKSAGEDFAVIVNEYALVVGILTINDVMSIVMGELVSTEEEQIMRRNEDSWLIDGATPLEDVMRALNIHTFPRDENYETIGGFMMYMLRKIPKKTDFVLYDKYKFEIIDTENFRIDQLMVSFRKDV”, “failed”. Turning to “MSLFGTTSGFGTSGTSMFGSATTDNHNPMKDIEVTSSPDDSIGCLSFSPPTLPGNFLIAGSWANDVRCWEVQDSGQTIPKAQQMHTGPVLDVCWSDDGSKVFTASCDKTAKMWDLSSNQAIQIAQHDAPVKTIHWIKAPNYSCVMTGSWDKTLKFWDTRSSNPMMVLQLPERCYCADVIYPMAVVATAERGLIVYQLENQPSEFRRIESPLKHQHRCVAIFKDKQNKPTGFALGSIEGRVAIHYINPPNPAKDNFTFKCHRSNGTNTSAPQDIYAVNGIAFHPVHGTLATVGSDGRFSFWDKDARTKLKTSEQLDQPISACCFNHNGNIFAYASSYDWSKGHEFYNPQKKNYIFLRNAAEELKPRNKK”, the protein production result was “failed”. With “MSLFPGDIEELARRIITDFTPLGLMVSTAESCTGGLIAGALTEIAGSSAVVDRGFVTYTNDAKRDMLGVGTETLTTFGAVSRQTALQMAHGALYRSRANFAVAVTGIAGPGGGSAEKPVGLVHLATKARNGNVLHHEMRYGDIGRTEIRLATVRTALEMLIALNQAGSV” the entry was “not failed”.
